The source of these data is patent US20210388081A1 (Memorial Sloan Kettering, published 2021).

Assay [1] addresses T1, FcRL6, overexpressed on 3T3 cells (UniProt Q6DN72 20-434, limits assumed).
T1 construct: whole, on cells
T1 sequence (looked up): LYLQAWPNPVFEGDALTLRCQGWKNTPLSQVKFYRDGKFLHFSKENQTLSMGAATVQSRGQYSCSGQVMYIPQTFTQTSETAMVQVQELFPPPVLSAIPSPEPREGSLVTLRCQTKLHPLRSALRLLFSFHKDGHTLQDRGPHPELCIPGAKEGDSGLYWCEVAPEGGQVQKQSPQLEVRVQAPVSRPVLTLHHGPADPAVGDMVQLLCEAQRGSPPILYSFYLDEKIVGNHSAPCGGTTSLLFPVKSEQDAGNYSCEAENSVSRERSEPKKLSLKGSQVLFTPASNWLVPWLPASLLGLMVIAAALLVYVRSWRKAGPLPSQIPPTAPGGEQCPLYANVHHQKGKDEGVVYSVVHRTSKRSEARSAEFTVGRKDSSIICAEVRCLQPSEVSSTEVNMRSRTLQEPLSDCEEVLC
Put plainly: phage clone on 3T3-FcRL6 cells.

Assay [2] deals with T2, FcRL4, overexpressed on 3T3 cells (UniProt Q96PJ5 20-515, limits assumed).
T2 construct: whole, on cells
T2 sequence (looked up): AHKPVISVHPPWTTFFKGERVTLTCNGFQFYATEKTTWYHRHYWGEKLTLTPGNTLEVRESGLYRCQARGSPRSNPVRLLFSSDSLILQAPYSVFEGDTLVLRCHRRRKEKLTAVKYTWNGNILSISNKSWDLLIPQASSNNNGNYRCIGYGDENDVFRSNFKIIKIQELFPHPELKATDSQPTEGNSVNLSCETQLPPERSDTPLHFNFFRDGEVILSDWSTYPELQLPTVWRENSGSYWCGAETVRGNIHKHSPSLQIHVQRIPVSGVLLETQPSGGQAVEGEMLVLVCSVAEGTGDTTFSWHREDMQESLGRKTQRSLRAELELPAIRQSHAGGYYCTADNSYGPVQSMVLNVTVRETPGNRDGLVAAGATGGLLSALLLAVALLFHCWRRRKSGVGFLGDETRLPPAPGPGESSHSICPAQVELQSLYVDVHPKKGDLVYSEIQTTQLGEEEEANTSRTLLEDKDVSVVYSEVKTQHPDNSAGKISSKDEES
Nature of the assay: phage clone on 3T3-FcRL4 cells.

B1: ET200-097 (scFv)
scFv: LPVLTQPPSVSVSPGQTAIITCSGDKLGEKYVSWYQQKPGQSPVLVIDQDTRRPSGIPERFSGSNSGTTATLTISGTQAMDEADYYCQAWDRGVVFGGGTKLTVLGSRGGGGSGGGGSGGGGSLEMAEVQLVESGGDLVQPGRSLRLSCAASGFTFNDYAMHWVRQAPGKGLEWVSGISWSGNNIGYADSVKGRFTISRDNAKNSLYLQMNSLRAEDTALYYCAKDSIRYGITWGGFDYWGQGTLVTVSSTSGQAGQHHHHHHGAYPYDVPDYAS
notes: screened as phage clone; entry is VL-linker-VH-His tag-HA tag
Regarding B1, the binding result in assay [1] and in assay [2] was “no binding” in each case.

B2: ET200-038 (scFv)
scFv: QSVLTQPPSVSGAPGQRVTISCTGSSSNIGAGFDVHWYQLLPGTAPKLLIYANSNRPSGVPDRFSGSKSGTSASLAITGLLAEDEADYYCQSYDSSLSGVVFGGGTKLTVLGSRGGGGSGGGGSGGGGSLEMAQVQLVQSGAEVKKPGSSVKVSCKASGGTFSSYAISWVRQAPGQGLEWMGGIIPIFGTANYAQKFQGRVTITADESTSTAYMELSSLRSEDTAVYYCARGASFDRHDNWGQGTLVTVSSTSGQAGQHHHHHHGAYPYDVPDYAS
notes: as for B1
On to B2, for which the binding result in assay [1] and in assay [2] was “no binding” throughout.

B3: ET200-041 (scFv)
scFv: NFMLTQPHSVSGSPGKTVTISCTGSSGSIADNFVQWYQQRPGGVPTTVIFNDDERPSGVPDRFSGSIDTSSNSASLTISGLKTEDEADYYCQSYDNNNRGVFGGGTKLTVLGSRGGGGSGGGGSGGGGSLEMAQVQLVQSGAEVKKPGSSVKVSCKASGGTFSSYAISWVRQAPGQGLEWMGWMNPNSGNTGYAQKFQGRVTMTRNTSISTAYMELSNLRSEDTAVYYCARYYSYGYDWGQGTLVTVSSTSGQAGQHHHHHHGAYPYDVPDYAS
notes: as for B1
As to B3, the binding result in assay [1] and in assay [2] was “no binding” each time.

B4: ET200-006 (scFv)
scFv: SYVLTQPPSVSVAPGKTARITCGGNNIGSKSVHWYQQKPGQAPVVVIHYDSDRPSGIPERFSGSNSGNTATLTISRVEAGDEADYYCQVWDSSSDHPYVFGTGTKVTVLGSRGGGGSGGGGSGGGGSLEMAEVQLVQSGAEVKKPGASVKVSCKASGYTFTTYGISWVRQAPGQGLEWMGWINTYNGHTNYAQKLQGRATMTADTSTNTAYMELRSLRSDDTAVYYCARVIYGSGDYWGQGTLVTVSSTSGQAGQHHHHHHGAYPYDVPDYAS
notes: as for B1
With B4, the binding result in assay [1] and in assay [2] was “no binding” throughout.

B5: ET200-079 (scFv)
scFv: SYELTQPPSASGTPGQRVTISCSGSSSNIGSNYVYWYQQLPGTAPKLFIYRNNQRPSGVPDRFSGSKSGTSASLAISGLRSEDEADYYCAAWDDSLSGYLFGTGTKVTVLGSRGGGGSGGGGSGGGGSLEMAEVQLVESGGGLVQPGRSLRLSCAASGFTFDDYAMHWVRQAPGKGLEWVSGISWNSGSIGYADSVKGRFTISRDNAKNSLYLQMNSLRAEDTALYYCANGDSNYYYGMDVWGQGTTVTVSSTSGQAGQHHHHHHGAYPYDVPDYAS
notes: as for B1
In the case of B5, the binding result in assay [1] and in assay [2] was “no binding” in each case.

B6: ET200-034 (scFv)
scFv: QSVLTQPPSVSGAPGQRVTISCTGSTSNIGAGYDVHWYQQLPGTAPKLLINNNRNRPSGVPDRFSGSKSGTSATLGITGLQTGDEADYYCGTWDGSLTGAVFGGGTKLTVLGSRGGGGSGGGGSGGGGSLEMAEVQLVQSGAEVKKPGSSVKVSCKASGGTFSSYAISWVRQAPGQGLEWMGGIIPIFGTANYAQKFQGRVTITADESTSTAYMELSSLRSEDTAVYYCARGSALDHYDRWGQGTLVTVSSTSGQAGQHHHHHHGAYPYDVPDYAS
notes: as for B1
On to B6, for which the binding result in assay [1] and in assay [2] was “no binding” in each case.

B7: ET200-098 (scFv)
scFv: QPVLTQPPSVSKGLRQTATLTCTGNSNNVGNLGVAWLQQHQGHPPKLLSYRNNNRPSGISERLSASRSGNTASLTITGLQPEDEADYYCSAWDSSLSAWVFGGGTKLTVLGSRGGGGSGGGGSGGGGSLEMAEVQLVESGGVVVQPGGSLRLSCAASGFTFDDYAMHWVRQAPGKGLEWVSLINWDGGSTYYADSVKGRFTISRDNSKNSLYLQMNSLRAEDTALYYCAKGMGLRAFDYWGQGTLVTVSSTSGQAGQHHHHHHGAYPYDVPDYAS
notes: as for B1
In the case of B7, the binding result in assay [1] and in assay [2] was “no binding” throughout.

B8: ET200-081 (scFv)
scFv: QSALTQPASVSGSPGQSITISCTGTSSDIGGYNYVSWYQQHPGKAPKLMIYDVSNRPSGVSNRFSGSKSGNTASLTISGLQAEDEADYYCISYTRTWNPYVFGSGTKVTVLGSRGGGGSGGGGSGGGGSLEMAEVQLVQSGGGVVQPGGSLRLSCAASGFTFDDYAMHWVRQAPGKGLEWVSLISGDGGSTYYADSVKGRFTISRDNSKNSLYLQMNSLRTEDTALYYCAKDRAAAGYYYYGMDVWGQGTTVTVSSTSGQAGQHHHHHHGAYPYDVPDYAS
notes: as for B1
In the case of B8, the binding result in assay [1] and in assay [2] was “no binding” each time.

B9: ET200-069 (scFv)
scFv: QSVVTQPPSASGTPGQRVTISCSGSSSNIGSNYVYWYQQLPGTAPKLLIYSNNQRPSGVPDRFSGSKSGTSASLAISGLRSEDEADYYCAAWDDSLSGYVFGTGTKLTVLGSRGGGGSGGGGSGGGGSLEMAQVQLQQWGAGLLKPSETLSLTCAVYGGSFSGYYWSWIRQPPGKGLEWIGEINHSGSTNYNPSLKSRVTISVDTSKNQFSLKLSSVTAADTAVYYCARLYEGGYHGWGSWLSSDSWGQGTLVTVSSTSGQAGQHHHHHHGAYPYDVPDYAS
notes: screened as phage clone; entry is VL-linker-VH-His tag-HA tag; also called ET200-69
With B9, the binding result in assay [1] and in assay [2] was “no binding” in each case.

B10: ET200-003 (scFv)
scFv: QSVLTQPPSVSVSPGQTASISCSGNKLGTKYVYWYQKRPGQSPVLVMYEDNQRPSGIPERFSGSNSGNTATLTIRGTQTVDEADYYCQAWDSDTFVVFGGGTKVTVLGSRGGGGSGGGGSGGGGSLEMAEVQLVETGGGVVQPGRSLRLSCAASGFTFSSYGMHWVRQAPGKGLEWVAVISHDGSNKYYADSVKGRFTISRDNSKDTLYLQMNSLRGEDTAVYYCARSNQWSGYFSFDYWGQGTLVTVSSTSGQAGQHHHHHHGAYPYDVPDYAS
notes: as for B1
Turning to B10, the binding result in assay [1] and in assay [2] was “no binding” throughout.

B11: ET200-044 (scFv)
scFv: QSVLTQPPSVSVSPGQTATIACSGHKLGDKYASWYQQKSGQSPVLIIYQDNKRPSGIPERFSGSNSGNTATLTISGTQALDEADYYCQAWDSSTYVAFGGGTKLTVLGSRGGGGSGGGGSGGGGSLEMAQVQLQESGPGLVKPSETLSLTCVVSGGSISSSNWWSWVRQPPGKGLEWIGEIYHSGSPNYNPSLKSRVTISVDKSKNQFSLKLSSVTAADTAVYYCARMTTHTFGYDAWGQGTLVTVSSTSGQAGQHHHHHHGAYPYDVPDYAS
notes: as for B1
For the molecule B11, the binding result in assay [1] and in assay [2] was “no binding” in each case.

B12: ET200-042 (scFv)
scFv: QSVVTQPPSVSGAPGQTVTISCTGGSSNIGTGYFVNWYQQVPGKAPKLLILGNNNRPSGVPDRLSGSTSGTSASLAITGLQAEDEGTYYCQSYDSSLSGYVFGTGTKVTVLGSRGGGGSGGGGSGGGGSLEMAQVQLQQSGPGLVKPSQTLSLTCGISGDSVSTNSVAWHWIRQSPSRGLEWLGRTYYRSKWSNDYGVSVKSRITIIPDTSKNQFSLQLNSVTPEDTAVYYCARSSSWYQIFDYWGQGTLVTVSSTSGQAGQHHHHHHGAYPYDVPDYAS
notes: as for B1
With B12, the binding result in assay [1] and in assay [2] was “no binding” each time.

B13: ET200-045 (scFv)
scFv: QPVLTQPPSVSVAPGKTATITCGGNNIGSESVHWYHQKPGQAPVLVIYDDAGRPSGIPERFTGSNSGNTATLTISRVEAGDEADYYCQVWDRNSAQFVFGPGTKVTVLGSRGGGGSGGGGSGGGGSLEMAEVQLVQSGAEVKKPGASVKVSCKASGYTFTSYGISWVRQAPGQGLEWMGWISAYNGNTNYAQKLQGRVTMTTDTSTSTAYMELRSLRSDDTAVYYCARGVHLDWWGQGTLVTVSSTSGQAGQHHHHHHGAYPYDVPDYAS
notes: as for B1
Regarding B13, the binding result in assay [1] and in assay [2] was “no binding” in each case.

B14: ET200-040 (scFv)
scFv: QSVLTQPPSVSGAPGQRVTISCTGSSSNIGAGYDVHWYQQLPGTAPKLLIYGNSNRPSGVPDRFSGSKSGTSASLAITGLQAEDEADYYCQSYDSSLSGYVFGTGTKVTVLGSRGGGGSGGGGSGGGGSLEMAQVQLVQSGAEVKKPGASVKVSCKVSGYTLTELSMHWVRQAPGKGLEWMGGFDPEDGETIYAQKFQGRVTMTEDTSTDTAYMELSSLRSEDTAVYYCARYSGVYYDWGQGTLVTVSSTSGQAGQHHHHHHGAYPYDVPDYAS
notes: as for B1
Regarding B14, the binding result in assay [1] and in assay [2] was “no binding” in each case.
